Data published in the RNAGym collection of RNA variant scans (doi:10.7554/elife.80360).

B1: HDV Ribozyme (parent)
chain: GGCCGGCAUGGUCCCAGCCUCCUCGCUGGCGCCGGCUGGGCAACAUUCCGAGGGGACCGUCCCCUCGGUAAUGGCGAAUGGGACCCA

Variants of: B1
Assay: self-cleavage, relative activity (ratio to wild type); higher = more cleavage; co-transcriptional

Variant | self-cleavage
GGUCGGCAUGGUCCCAGCCUCCUCGCUGGCGCCUGCUGGGCAACAUUCCGAGGGGACCGUCCCCUCGGUAAUGGCGAAUGGGACCCA | 0.141
GGUCGGCAUGGUCCCAGCCUCCUCGCUGGCGCCGGCUGGGCAACAUUCCGAGGGGACCGUCCCCUCGGUAAUGGCGAAUGGGACCGA | 0.848
GGCAGGCAUGGUCCCAGCCUCCUCGCUGGCGCCGGCUGGGCACCAUUCCGAGGGGACCGUCCCCUCGGUAAUGGCGAAUGGGACCCA | 0
GGUCGGCAUGGUCCCAGCCUCCUCGCUGGCGCCGGCUAGGCAACAUUCCGAGGGGACCGUCCCCUCGGUAAUGGCGAAUGGGACCCA | 0.0811
GGUCGGCAUGGUCCCAGCCUCCUCGCUGGCGCCGGCUCGGCAACAUUCCGAGGGGACCGUCCCCUCGGUAAUGGCGAAUGGGACCCA | 0.122
GGUCGGCAUGGUCCCAGCCUCCUCGCUGGCGCCGGCUUGGCAACAUUCCGAGGGGACCGUCCCCUCGGUAAUGGCGAAUGGGACCCA | 0.111
GGUCGGCAUGGUCCCAGCCUCCUCGCUGGCGCCGGCUGGGCAACAUUCCGAGGGGACCGUCCCCUCGGUAAUGGCUAAUGGGACCCA | 0.973
GGUCGGCAUGGUCCCAGCCUCCUCGCUGGCGCCGGCUGGGCAACAUUCCGAGGGGACCGUCCCCUCGGUAAUGGCGAACGGGACCCA | 0.342
GGUCGGCAUGGUCCCAGCCUCCUCGCUGGCGCCGGCUGGGCAACAUUCCGAGGGGACCGUCCCCUCGGUAAUGGCGAAGGGGACCCA | 0.489
GGUCGGCAUGGUCCCAGCCUCCUCGCUGGCGCCGGCUGGGCAACAUUCCGAGGGGACCGUCCCCUCCGUAAUGGCGAAUGGGACCCA | 0.772
GGUCGGCAUGGUCCCAGCCUCCUCGCUGGCGCCGGCUGGGCAACAUUCCGAGGGGACCGUCCCCUCGGUAAUGGCGAAUGGGAACCA | 0.665
GGUCGGCAUGGUCCCAGCCUCCUCGCUGGCGCCGGCUGGGCAACAUUCCGAGGGGACCGUCCCCUCGGUAAUGGCGAAUGGGAGCCA | 0.636
GGUCGGCAUGGUCCCAGCCUCCUCGCUGGCGCCGGCUGGGCAACAUUCCGAGGGGACCGUCCCUUCGGUAAUGGCGAAUGGGACCCA | 0.954
GGCAGGCAUGGUCCCAGCCUCCUCGCUGGCGCCGGCUGGGCAACUUUCCGAGGGGACCGUCCCCUCGGUAAUGGCGAAUGGGACCCA | 0.095
GGUCGGCAUGGUCCCAGCCUCCUCGCUGGCGCCGGCUGGGCAACAUUCCGAGGGGACCUUCCCCUCGGUAAUGGCGAAUGGGACCCA | 0.943
GGUCGGCAUGGUCCCAGCCUCCUCGCUGGCGCCGGCUGGGCAACAUUCCGAGGGGACCAUCCCCUCGGUAAUGGCGAAUGGGACCCA | 0.925

Variant | self-cleavage
GGUCGGCAUGGUCCCAGCCUCCUCGCUGGCGCCGGCUGGGCAACAUUCCGAGGGGACCCUCCCCUCGGUAAUGGCGAAUGGGACCCA | 0.688
GGCAGGCAUGGUCCCAGCCUCCUCGCUGGCGCCGGCUGGGCAACAUUCCGCGGGGACCGUCCCCUCGGUAAUGGCGAAUGGGACCCA | 0.277
GGUCGGCAUGGUCCCAGCCUCCUCGCUGGCGCCGGCUGGGCAACAUUCCGAGGGGACCGCCCCCUCGGUAAUGGCGAAUGGGACCCA | 0.943
GGUCGGCAUGGUCCCAGCCUCCUCGCUGGCGCCGGCUGGGCAACAUUCCGAGGGGACCGUCCCCUCGGUAAAGGCGAAUGGGACCCA | 0.684
GGUCGGCAUGGUCCCAGCCUCCUCGCUGGCGCCGGCUGGGCAACAUUCCGAGGGGACCGUCCUCUCGGUAAUGGCGAAUGGGACCCA | 0.645
GGUCGGCAGGGUCCCAGCCUCCUCGCUGGCGCCGGCUGGGCAACAUUCCGAGGGGACCGUCCCCUCGGUAAUGGCGAAUGGGACCCA | 0.942
GGUCGGCACGGUCCCAGCCUCCUCGCUGGCGCCGGCUGGGCAACAUUCCGAGGGGACCGUCCCCUCGGUAAUGGCGAAUGGGACCCA | 0.95
GGUCGGCAUGGUCCCAGCCUCCUCGCUGGCACCGGCUGGGCAACAUUCCGAGGGGACCGUCCCCUCGGUAAUGGCGAAUGGGACCCA | 0.329
GGUCGGCAUGGUCCCAACCUCCUCGCUGGCGCCGGCUGGGCAACAUUCCGAGGGGACCGUCCCCUCGGUAAUGGCGAAUGGGACCCA | 0.361
GGUCGGCAUGGUCCCAGCCACCUCGCUGGCGCCGGCUGGGCAACAUUCCGAGGGGACCGUCCCCUCGGUAAUGGCGAAUGGGACCCA | 0.0308
GGUCGGCAUUGUCCCAGCCUCCUCGCUGGCGCCGGCUGGGCAACAUUCCGAGGGGACCGUCCCCUCGGUAAUGGCGAAUGGGACCCA | 0.372
GGUCGGCAUCGUCCCAGCCUCCUCGCUGGCGCCGGCUGGGCAACAUUCCGAGGGGACCGUCCCCUCGGUAAUGGCGAAUGGGACCCA | 0.762
GGUCGGCAUGGUCCCAGCCUCCUCGCUGGCGCCGGCGGGGCAACAUUCCGAGGGGACCGUCCCCUCGGUAAUGGCGAAUGGGACCCA | 0.0639
GGUCGGCAUGGUCCCAGCCUCCUCGCUGGCGCCGGCUGGGCAACAAUCCGAGGGGACCGUCCCCUCGGUAAUGGCGAAUGGGACCCA | 0.628
GGUCGGCAUGGUCCCAGCCUCCUCGCUGGCGCCGGCUGGGCAACACUCCGAGGGGACCGUCCCCUCGGUAAUGGCGAAUGGGACCCA | 0.567
GGUCGGCAUGGUCCCAGCCUCCUCGCUGGCGCCGGCUGGGCAACAGUCCGAGGGGACCGUCCCCUCGGUAAUGGCGAAUGGGACCCA | 0.446
